Experimental data published in article PMC5725915.

Target: human factor Xa (human)
Experiment: prothrombinase activity titration

human factor Xa (human), sequence (P00742 whole entry): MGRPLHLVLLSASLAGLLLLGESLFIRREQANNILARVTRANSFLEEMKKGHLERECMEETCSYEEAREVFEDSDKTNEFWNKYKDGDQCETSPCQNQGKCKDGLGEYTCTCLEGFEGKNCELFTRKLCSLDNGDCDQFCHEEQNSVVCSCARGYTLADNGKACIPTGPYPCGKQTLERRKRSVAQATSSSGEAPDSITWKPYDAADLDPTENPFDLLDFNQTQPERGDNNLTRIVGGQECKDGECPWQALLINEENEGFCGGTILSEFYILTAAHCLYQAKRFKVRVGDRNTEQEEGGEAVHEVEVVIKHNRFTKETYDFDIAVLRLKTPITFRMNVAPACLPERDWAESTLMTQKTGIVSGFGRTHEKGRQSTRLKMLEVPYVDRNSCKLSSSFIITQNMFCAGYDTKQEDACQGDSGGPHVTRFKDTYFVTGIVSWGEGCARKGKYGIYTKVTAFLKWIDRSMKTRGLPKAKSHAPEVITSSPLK

Kd: 0.48 nM
Substance: wild-type recombinant human fV activated with thrombin (rhfVa^WT) (from UniProt P12259 29-737; P12259 1574-2224) (complex)
